The values that follow come from the DeepSol protein solubility set.

The series in a line: soluble on expression in E. coli; label from the status in PepcDB or PDB records.
“SEENEEEEELRPTALYTVGGSDEFTFVSPDGLSGQYTGPDHDGVVLQTENPAPTNCLAYYFEVHIMNAGEKGEIAIGFSKEHIYSEGYTVRSCAYIGNSGLICSQNGDGDRTVAKASDTYTTGDLVGCGIDSVSQEFFFTKNGTIVGTIPRQFRRPVYPTIVLHSQNEAVTVNFGGQIAFSFDFEVRSYFSFLA”: the “soluble on expression in E. coli” value is given as “soluble”.

In the case of “MAHHHHHHMQVPPLTELSPSISVHLLLGNPSGATPTKLTPDNYLMVKNQYALSYNNSKGTANWVAWQLNSSWLGNAERQDNFRPDKTLPAGWVRVTPSMYSGSGYARGHIAPSADRTKTTEDNAATFLMTNMMPQTPDNNRNTWGNLEDYCRELVSQGKELYIVAGPNGSLGKPLKGKVTVPKSTWKIVVVLDSPGSGLEGITANTRVIAVNIPNDPELNNDWRAYKVSVDELESLTGYDFLSNVSPNIQTSIESKVDN”, the “soluble on expression in E. coli” value is recorded as “soluble”.

In the case of “MGSDKIHHHHHHCEDIFNDLAVNPNQSDVNSFYTTLENCNKGILGIYGYISTPRNLGACGFGLMLTRSDEGCSVADYGVPGAYNEEFTPSYYSLVQPFQLMYTAASQANQMIESLTEIEFSNKELQDAYLGEAYFLRAFTHFFLFINYRNIPLIKELPKAPNEYKPQATPEEAWDFIIDDLIKAKDLLPDKNFWDAKNKGRVTKASAYALLGKSYLYRSGIEPKYGTSQTTYYNEAAAAFAEIINGNCGNYRLVDDYSWNFDVAHENNDESIFEVQFVGVLNTGFNPGFVDSGLFNDVRCKMCIMNRSRNSNSSAQVMHNWLYDKFVASKTVTGETDPRMFGSFVFNDNVSEIIRPKGMKVTFLEGKDWEAEMGSKEGTFGEQYELAMGYKMCSRKWLDWTLPPTDDAGGHFFNGRAQGVNWRMIRYSDVLLMYAEAVVMGGKATANITPLEAINKVRDRVGVPHVTEANMRTIEDERILELTYEGFRFFDLLRWGKVVERFRELENTDPLFKRFSRAQYMGFKENKNEWVPLPIDEVEGNPYITKNNPGW”, the “soluble on expression in E. coli” value is recorded as “not soluble”.

Take “MGLSDEQLGKIVRFHLKEDKQAHERIKQKMMESMKAFRKAVGEPATDDETLRKLGQAHIDSFNEMVKYHIDERKAVRSILTPEQIGKLEHHHHHH”: the “soluble on expression in E. coli” value was “not soluble”.

Consider “DAVELFKKANAMLDEDEDERVDEAALRQLTEMGFPENRATKALQLNHMSVPQAMEWLIEHAEDPTIDTPL”, for which the “soluble on expression in E. coli” value is recorded as “soluble”.

As for “MGSDKIHHHHHHMADFQGETEMTAEVFDPRALRDAFGAFATGVTVVTASDAAGKPIGFTANSFTSVSLDPPLLLVCLAKSSRNYESMTSAGRFAINVLSETQKDVSNTFARPVEDRFAAVDWRLGRDGCPIFSDVAAWFECSMQDIIEAGDHVIIIGRVTAFENSGLNGLGYARGGYFTPRLAGKAVSAAVEGEIRLGAVLEQQGAVFLAGNETLSLPNCTVEGGDPARTLAAYLEQLTGLNVTIGFLYSVYEDKSDGRQNIVYHALASDGAPRQGRFLRPAELAAAKFSSSATADIINRFVLESSIGNFGIYFGDETGGTVHPIANKDAHS”, the “soluble on expression in E. coli” value is listed as “not soluble”.

Consider “MSKQQEQDTPSFGEIRQRLQAGEDFDLAHRLQEREYEMYYNHNRNVNGTIVGDRKKTREEQIAEDEHAASLRRLGHAERSMSDEEYARQLQEEMDRLDASIQMDKEAQLREDARMAWLLQQESSATPAPSRHSGDLISFEDQPQQSSNTTTSSSCQSANNS”, for which the “soluble on expression in E. coli” value is given as “not soluble”.

With “MTPFTVDILIPIWNRPVETRNCLVTLMETTPSARLILIDNGSDRETERLLEEFSEILGERALFLKTSANQGFVRAVNRSLAQVEAPYAVVMQNTTLVTRGWLEPMVELADSRPDAGIIVPRLELEDGQGRRPKAAPPAGPVTEVSHGSFAASMVRRELVERQGGFDEELDGGPWCLRDYSRRAFRNGFLTLALDGAVVTYAEEVPLGSVARREETVRRSAETCRARWGREDAFCIYFPKDAEPEAVHGKLDVILRGARMGQCFTLILHPGLHKSLMETGHAPLHSNIALAPLPRFFATGEIRKIIGKLASVRGDTVTVAGVDGLSIPGVEGARSFSWLADEIRRRHESLYRPESP”, the “soluble on expression in E. coli” value is reported as “soluble”.

“MAHHHHHHMRVIIQRVKNAALSVIKEESKETEKQLELFSEIKNGIICFVGIHKNDTWKDAMYIIRKCLNLRLWSDGNKSWDKSVKDLNYEILFVSQFTLFANTKKGNKPDFHLAKEPKEALAMYNKMVEQFAKDYNHEKIKTGKFGCYMNIQVTNDGPVTIFIDSHDVNLDN”: the “soluble on expression in E. coli” value is given as “not soluble”.

“MSLATLKDVAELAGVGLSTASRAISGKGPVSADAAARVKAAIAELNFRPSSIGRAMATQQLGIIGLFVPTFFGSYYGTILKQTDLELRAVHRHVVVATGCGESTPREQALEAVRFLIGRDCDGVVVISHDLHDEDLDELHRMHPKMVFLNRAFDALPDASFCPDHRRGGELAAATLIEHGHRKLAVISGPFTASDNVERLDGFFDELARHGIARDSVPLIESDFSPEGGYAATCQLLESKAPFTGLFCANDTMAVSALARFQQLGISVPGDVSVIGYDDDYSAAYAAPALTSVHIPTAELTQNAVRWLINQCYGTKWEIFREFPVTVSMRASVAREGHHHHHH”: the “soluble on expression in E. coli” value is “soluble”.

For “MNPLLFNDRTLKGSGVLARVTPTGTQYVASVVAAAFSSHFADIKPPKERKDHQLTTISTVTLRRLMLETLQLDKQLVTTTTSDGLLRITVQNISVSSSAVLSGELREIKLQDNVTFRTANLRIDTAIRIMKNAGGNPALKMESCKIVTQGIKLVTKPMDPRNGKSLADAIANDANTMFSDLICSKIDHIVSNRVNQRFALLSSRISLEDSKNFDIVKIIMQAEERLKRLVRQNMLRSNKTIRRNVHAHNARRVSRDPVRGKRQADEDKFHLILNSFNFSRADSLMLDYSMLSPPSLTSRGIELQTSGEVFQKGHVTPFGAGPIFLPRIPNPSQMLQIVVSDFVPNSLMFHGHRIKLFDTRIDWMTPQFGPVMRTTCDLSTGSLFCIGDLFPALREMLPDRNVAFLFTTLRAPAVIMQPEEKGGIHFSLRGLIRLVSDRNEPIGEMEIRIEALMKMKLTSKSVKGKVTIEEIQFTSRSPRILLQEELDDAGFLSREILQRMVNDILRQGIPIPIHPLFKLVKPKLTLLSRSMLLETNFLLNEHIIAQLTAEALVA”, the “soluble on expression in E. coli” value is “not soluble”.

On to “MFSPVKSTKVYEQIIEQFKIMIANGTLKKGDKLPSERELVSQLGVSRASIREALSALQMIGFVEARHGEGNFIRENFEESLIDPFLLIFMLNGSNKEQILELRRIIEVETAALAAKKITDEEVKELEVCLENLTEAENETLKGKYDKKFHYNIAKASKNILIVNMLNAVSSLMDSFISEARGRILMVEDNKNVLMKQHRSMLEALKNHDSKAASNAMSEHLDLIYEYIIKK”, for which the “soluble on expression in E. coli” value is listed as “not soluble”.

With “MKSNHYMSIMEEFYMDKNLLEITGYDGEGYVPLIDYSHWRVAELRYCEELEVDKLKDMQKHDETDEVFVLLEGDFTLFLGGNGEHIGEIEAIKLEPLKLYNVKRGTYHTHTPEKNSTVLIVENVDTTDDNSPKEKLTLEQKKIIEKLYKEVNS”, the “soluble on expression in E. coli” value is on record as “not soluble”.

Take “MKNNLPIIALDFASAEETLAFLAPFQQEPLFVKVGMELFYQEGPSIVKQLKERNCELFLDLKLHDIPTTVNKAMKRLASLGVDLVNVHAAGGKKMMQAALEGLEEGTPAGKKRPSLIAVTQLTSTSEQIMKDELLIEKSLIDTVVHYSKQAEESGLDGVVCSVHEAKAIYQAVSPSFLTVTPGIRMSEDAANDQVRVATPAIAREKGSSAIVVGRSITKAEDPVKAYKAVRLEWEGIKS”: the “soluble on expression in E. coli” value is “soluble”.

On to “MHHHHHHSSGVDLGTENLYFQSMINSFYAFEVKDAKGRTVSLEKYKGKVSLVVNVASDCQLTDRNYLGLKELHKEFGPSHFSVLAFPCNQFGESEPRPSKEVESFARKNYGVTFPIFHKIKILGSEGEPAFRFLVDSSKKEPRWNFWKYLVNPEGQVVKFWRPEEPIEVIRPDIAALVRQVIIKKKEDL”, for which the “soluble on expression in E. coli” value was “soluble”.

As to “MGHHHHHHSHRSSDCPYIVQFYGALFREGDCWICMELMSTSFDKFYKYVYSVLDDVIPEEILGKITLATVKALNHLKENLKIIHRDIKPSNILLDRSGNIKLCDFGISGQLVDSIAKTRDAGCRPYMAPERIDPSASRQGYDVRSDVWSLGITLYELATGRFPYPKWNSVFDQLTQVVKGDPPQLS”, the “soluble on expression in E. coli” value was “not soluble”.

In the case of “MVDLKRLRQEPEVFHRAIREKGVALDLEALLAVDEQLHKQQEVIADKQMSVKEDLDKVEPAVIEAQNAVKSIKKQHLVEVRSMANPPAAVKLALESIALLLGESTTDWKQIRSIIMRENFIPTIVNFSAEEISDAIREKMKKNYMSNPSYNYEIVNRASLAAGPMVKWAIAQLNYADMLKRVEPLRNELQKLEDDAKDNQQKLEALLLQVPLPPWPGAPVGGEEANREIKRVGGPPEFSFPPLDHVALMEKNGWWEPRISQVSGSRSYALKGDLALYELALLRFAMDFMARRGFLPMTLPSYAREKAFLGTGHFPAYRDQVWAIAETDLYLTGTAEVVLNALHSGEILPYEALPLRYAGYAPAFRSEAGSFGKDVRGLMRVHQFHKVEQYVLTEASLEASDRAFQELLENAEEILRLLELPYRLVEVATGDMGPGKWRQVDIEVYLPSEGRYRETHSCSALLDWQARRANLRYRDPEGRVRYAYTLNNTALATPRILAMLLENHQLQDGRVRVPQALIPYMGKEVLEPGAHHHHHH”, the “soluble on expression in E. coli” value was “soluble”.

With “DGVRIFNSLAATVYADSTAAHADMQGRRLKAVSDGLDHNGTGLRVIAQTQQDGGTWEQGGVEGKMRGSTQTVGIAAKTGENTTAAATLGMGRSTWSENSANAKTDSISLFAGIRHDAGDIGYLKGLFSYGRYKNSISRSTGADEHAEGSVNGTLMQLGALGGVNVPFAATGDLTVEGGLRYDLLKQDAFAEKGSALGWSGNSLTEGTLVGLAGLKLSQPLSDKAVLFATAGVERDLNGRDYTVTGGFTGATAATGKTGARNMPHTRLVAGLGADVEFGNGWNGLARYSYAGSKQYGNHSGRVGVGYRF”, the “soluble on expression in E. coli” value is “soluble”.

In the case of “MRTSDSHLPLSNLARSDSIEFKDAVINEKWVHSANRRKGHLTPKAPEKKSGWFGGQKSEEELLMERVEQHELEELQTFIAQKLFRVDGIICDEETRILLVEKLMNAKEYPTINHDELAHRYGSSMAGWLRDRLVPSMSDCSSVLQRAAAEFYQNKMSDPLCNWGQLNPEHVSMVAARIAKFSEEMSSKVKWSLLVEPGKFSCHLTEFVQEFNRLDRMFVSNELSDEESLQTAFNANYLTKARSKMVPCAEFSRVKLNDGLGRLDDRNELRNGMFSDEHEFLQEEGYTAKSTYGTTDFIHANYVKGGPLLNTFICAQAPLKNTQEDFWRMVFQEKCQFIVMLNSAVDSSTLGPLDSANRNHCPYYWPRAENESLRFGSFHITCMKVDSKADPLFTITKLKVQKVGGNLLDAEFDEELFLEHWQWDWQYLGDVHWPFRVLRKARQLSTPTIVQCIDGCSKSGTLVSIETALMHFIRGSPITKSLILQSCVFVRLQRRLSVSSVLLYLFIYRVILRWIEPYVNKWYHRAALGLRFKSIGFIQKYNAMIQEFSRITPAY”, the “soluble on expression in E. coli” value was “not soluble”.

As for “MLPTRSLLPFFLAPALLASAASQAAMEALDNDSLSQVTGQAGISLRLDLRAGAARVAWVDDGGSLSLRNLVIDNGCVKAGDCPDGRGGNIPLGAAQLGLSLPIFGVEQPTLALDVTTGSGGGQQLAISLPDLATINDQLIASGLPAQRIRLRVASDLYIGDNSIGRIELRDITDLRGTIKVWGH”, the “soluble on expression in E. coli” value is listed as “not soluble”.

Take “MSLGASTNWDDHAIIIFGYPETIANSIILHFANFGEILEDFRVIKDFKKLNSKNMSKSPSLTAQKYPIYTGDGWVKLTYKSELSKSRALQENGIIMNGTLIGCVSYSPAALKQLASLKKSEEIINNKTSSQTSLSSKDLSNYRKTEGIFEKAKAKAVTSKVRNAEFKVSKNSTSFKNPRRLEIKDGRSLFLRNRGKIHSGVLSSIESDLKKREQASKSKKSWLNRLNNWLFGWNDLEGHHHHHH”: the “soluble on expression in E. coli” value is “soluble”.
